Kd, koff and kon data for 19 molecules are collected here from patent publication US20260193326A1 (published 2026).

Where a chain is given by its changes, count along the chain named.

Experiment in all cases: SPR, AAV amine-coupled to CM5 chip;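 further: nanobodies flowed as analyte at seven concentrations spanning 1–100 nM over immobilized AAV (500–800 RU), kinetic constants derived by fitting the binding curves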
Assay [1] has as its target T1, AAV9 (adeno-associated virus 9).
T1 construct: also called adeno-associated virus serotype 9
Description: (§1) AAV was amine-coupled to a CM5 sensor chip at a density of 500-800 response units (RU). Nanobodies were injected at seven concentrations (1-100 nM) with a flow rate of 45 μL/min, and chip regeneration was performed using glycine-HCl (pH 1.5). Binding curves at different nanobody concentrations were used to calculate kinetic parameters (Kₐ, Kd, KD) (Table 2 and FIG. 2).

The target of assay [2] is T2, AAV8 (adeno-associated virus 8).
T2 construct: also called adeno-associated virus serotype 8
Description: as §1

The target of assay [3] is T3, AAV5 (adeno-associated virus 5).
T3 construct: also called adeno-associated virus serotype 5
Description: as §1

B1: A4-060 (VHH)
VHH: VQLQESGGGLVQPGGSLRLSCAASGSTFSLNTMGWYRQAPGKQREIVATVTRGGSTNYAESVKGRFTISRDNAKNTVYLQMNSLRPEDTAVYYCHVDEVRQSTWTTSNLWGQGTQVTVSS
The Kd is the equilibrium constant for the complex coming apart. A word on the koff: it is the first-order rate constant of dissociation. A word on the kon: it is the second-order rate constant of association. Higher therefore signals faster complex formation. Turning to B1, the Kd in assay [1] worked out at 69.2 nM; in assay [2], 6.63 nM; in assay [3], 2.45 nM. Also, the results for the koff in assay [1], in assay [2] and in assay [3] were 0.00176 s⁻¹, 0.00055 s⁻¹ and 0.00045 s⁻¹, respectively. Further, the kon was found to be 25400 M⁻¹ s⁻¹ in assay [1], 82900 M⁻¹ s⁻¹ in assay [2] and 184000 M⁻¹ s⁻¹ in assay [3].

B2: A4-070 (VHH)
VHH: B1 VHH with T27I, L30I, T32S, Q43W, I46L, E60N, S83T, V96L, Q101D, T103S
Regarding B2, the Kd in assay [1] came out at 35.5 nM; in assay [2] it was 20.9 nM; in assay [3], 86.8 nM. The koff in assay [1] turned out to be 0.00012 s⁻¹; in assay [2], 0.00019 s⁻¹; in assay [3], 0.00064 s⁻¹. The kon in assay [1] is 3380 M⁻¹ s⁻¹; in assay [2], 9090 M⁻¹ s⁻¹; in assay [3] it was 7370 M⁻¹ s⁻¹.

B3: A4-061 (VHH)
VHH: B1 VHH with T27R, I46L, E60N
Regarding B3, the equilibrium dissociation constant (Kd) in assay [1] came to 273 nM; in assay [2] it was 530 nM; in assay [3], 86.8 nM. Moreover, the koff in assay [1] amounted to 0.0013 s⁻¹; in assay [2] it was 0.00057 s⁻¹; in assay [3], 0.00055 s⁻¹. The kon turned out to be 4770 M⁻¹ s⁻¹ in assay [1] and 6330 M⁻¹ s⁻¹ in assay [3].

B4: A4-062 (VHH)
VHH: VQLQESGGGLVQAGGSLRLSCAASGSSFSINAMGWYRQAPGKQRELVATVTRGGTTNYADSVKGRFTISRDNPKNTVYLQMNSLRPEDTAVYYCHLDEVRESSWTTSNLWGQGTQVTVSS
With B4, in assay [1], the affinity, expressed as Kd, was 1.83 nM; the koff is 6e-05 s⁻¹; the kon was 32800 M⁻¹ s⁻¹. Further, in assay [2], the Kd was 1.39 nM, the koff came out at 0.00019 s⁻¹ and the kon is 137000 M⁻¹ s⁻¹. For the same molecule, in assay [3], the Kd came out at 0.0635 nM, the koff came out at 1e-05 s⁻¹ and the kon amounted to 157000 M⁻¹ s⁻¹.

B5: A4-066 (VHH)
VHH: B1 VHH with P13T, S26R, T27A, I46L, E60G, Q101E, T103S
For the molecule B5, in assay [1], the Kd was 32.8 nM, the koff came out at 0.00101 s⁻¹ and the kon was 30700 M⁻¹ s⁻¹. Further, in assay [2], binding was put at a Kd of 21.6 nM, the koff was determined as 0.002 s⁻¹ and the kon worked out at 92400 M⁻¹ s⁻¹. In assay [3], this molecule gave a Kd of 20.7 nM, a koff of 0.00191 s⁻¹ and a kon of 92100 M⁻¹ s⁻¹.

B6: A4-073 (VHH)
VHH: B1 VHH with T27N, L30I, I46M, A59G, E60D, S61F, V99I, T103S, L109I
For the molecule B6, in assay [1], the Kd worked out at 1880 nM, the koff came to 0.00292 s⁻¹ and the kon turned out to be 1560 M⁻¹ s⁻¹. Also, in assay [2], the dissociation constant Kd was 1140 nM, the koff worked out at 0.00619 s⁻¹ and the kon is 5420 M⁻¹ s⁻¹. In assay [3], this molecule came in with a Kd of 1140 nM, a koff of 0.00862 s⁻¹ and a kon of 7530 M⁻¹ s⁻¹.

B7: A4-078 (VHH)
VHH: B1 VHH with A22L, S26T, T27M, I46L, E60D, S61F, Q101D, T103S
In assay [1], B7 yielded a Kd of 215 nM, a koff of 0.00618 s⁻¹ and a kon of 28800 M⁻¹ s⁻¹. In assay [2], this molecule had a Kd of 61.6 nM, a koff of 0.006 s⁻¹ and a kon of 97500 M⁻¹ s⁻¹. In assay [3], the affinity, expressed as Kd, was 52.7 nM; the koff was found to be 0.00932 s⁻¹; the kon was determined as 177000 M⁻¹ s⁻¹.

B8: A4-063 (VHH)
VHH: VQLQESGGGLVQPGGSLRLSCAASGRRFTINTMGWYRRAPGKQRELVATITRGGSTNYAGSVKGRFTISRDNPKNTVYLQMNSLRPEDTAVYYCHIDEVRQSSWTTSNLWGQGTQVTVSS
For the molecule B8, the Kd in assay [1] amounted to 81.6 nM; in assay [2], 439 nM; in assay [3] it was 128 nM. Moreover, the koff came out at 0.00401 s⁻¹ in assay [1], 0.0065 s⁻¹ in assay [2] and 0.00834 s⁻¹ in assay [3]. The kon was found to be 49100 M⁻¹ s⁻¹ in assay [1], 14800 M⁻¹ s⁻¹ in assay [2] and 65000 M⁻¹ s⁻¹ in assay [3].

B9: A4-084 (VHH)
VHH: VQLQESGGGLVQPGGSLKLSCAASGSRFSLNTMGWYRQAPRKQREFVAAVTRGGNTNYGDFVKGRFTISRDNAKNTVYLQMNSLRPEDTAVYYCHVDELRESSWTTSNLWGQGTQVTVSS
In assay [1], B9 yielded a Kd of 2.28 nM, a koff of 0.0003 s⁻¹ and a kon of 132000 M⁻¹ s⁻¹. In assay [2], this molecule showed a Kd of 12.8 nM, a koff of 0.00177 s⁻¹ and a kon of 138000 M⁻¹ s⁻¹. In assay [3], this molecule had a Kd of 0.364 nM, a koff of 6e-05 s⁻¹ and a kon of 165000 M⁻¹ s⁻¹.

B10: A4-065 (VHH)
VHH: B1 VHH with P13S, S26R, T27N, M33V, I46L, E60G, Q101E, T103S
In assay [1], B10 came in with a Kd of 8.44 nM, a koff of 0.00139 s⁻¹ and a kon of 165000 M⁻¹ s⁻¹. In assay [2], this molecule yielded a Kd of 184 nM, a koff of 0.00095 s⁻¹ and a kon of 5180 M⁻¹ s⁻¹. In assay [3], binding was put at a Kd of 25 nM, the koff was 0.00155 s⁻¹ and the kon came out at 61900 M⁻¹ s⁻¹.

B11: A4-087 (VHH)
VHH: B9 VHH with K18R, R41G, F46L
As to B11, the Kd in assay [1] is 4.13 nM; in assay [2], 1.05 nM; in assay [3], 1.69 nM. In addition, the koff worked out at 0.00023 s⁻¹ in assay [1], 0.00012 s⁻¹ in assay [2] and 0.0003 s⁻¹ in assay [3]. In addition, the kon in assay [1] came to 55700 M⁻¹ s⁻¹; in assay [2] it was 115000 M⁻¹ s⁻¹; in assay [3], 177000 M⁻¹ s⁻¹.

B12: A4-086 (VHH)
VHH: B9 VHH with K18R, R41G, F46L, G59A
On to B12, for which, in assay [1], the Kd came to 1.45 nM, the off-rate (koff) was determined as 0.00026 s⁻¹ and the association rate constant (kon) amounted to 179000 M⁻¹ s⁻¹. In assay [2], this molecule came in with a Kd of 0.76 nM, a koff of 6e-05 s⁻¹ and a kon of 78900 M⁻¹ s⁻¹. In assay [3], this molecule displayed a Kd of 23.1 nM, a koff of 0.00107 s⁻¹ and a kon of 46400 M⁻¹ s⁻¹.

B13: A4-080 (VHH)
VHH: B9 VHH with K18R, R41G, F46L, A49T, N55S, G59A, S103G
On to B13, for which, in assay [1], the affinity, expressed as Kd, was 5.08 nM; the koff came to 0.00074 s⁻¹; the kon was determined as 146000 M⁻¹ s⁻¹. Also, in assay [2], the Kd worked out at 191 nM, the koff amounted to 0.00138 s⁻¹ and the kon came out at 7220 M⁻¹ s⁻¹. In assay [3], this molecule displayed a Kd of 20.4 nM, a koff of 0.00194 s⁻¹ and a kon of 95200 M⁻¹ s⁻¹.

B14: A4-081 (VHH)
VHH: B1 VHH with T27R, I46L, E60D, V99L, Q101E, T103G
As for B14, the values for the Kd in assay [1], in assay [2] and in assay [3] were 13.7 nM, 6.05 nM and 12.5 nM, respectively. Moreover, the koff in assay [1] was 0.00131 s⁻¹; in assay [2], 0.00105 s⁻¹; in assay [3], 0.00146 s⁻¹. In addition, the kon in assay [1] came to 95900 M⁻¹ s⁻¹; in assay [2] it was 174000 M⁻¹ s⁻¹; in assay [3], 117000 M⁻¹ s⁻¹.

B15: A4-082 (VHH)
VHH: B9 VHH with K18R, R41G, F46L, A49T, N55S, N57K, G59A, S103G
B15: the Kd stood at 122 nM in assay [1], 46.7 nM in assay [2] and 92.9 nM in assay [3]. For the same molecule, the koff came to 0.0004 s⁻¹ in assay [1], 0.00017 s⁻¹ in assay [2] and 0.0005 s⁻¹ in assay [3]. Besides, the figures for the kon in assay [1], in assay [2] and in assay [3] were 3290 M⁻¹ s⁻¹, 3640 M⁻¹ s⁻¹ and 5380 M⁻¹ s⁻¹, respectively.

B16: A4-069 (VHH)
VHH: B4 VHH with A13P, S27I, S29T, A32S, Q43W, T55N, D60N, P73A, S83T, E101D
B16: the Kd amounted to 9.34 nM in assay [1], 11.6 nM in assay [2] and 3.58 nM in assay [3]. In addition, the koff in assay [1] amounted to 0.00098 s⁻¹; in assay [2], 0.00142 s⁻¹; in assay [3], 0.0002 s⁻¹. The kon in assay [1] was 105000 M⁻¹ s⁻¹; in assay [2], 122000 M⁻¹ s⁻¹; in assay [3] it was 55800 M⁻¹ s⁻¹.

B17: A4-085 (VHH)
VHH: B9 VHH with K18R, R41G
In assay [1], B17 showed a Kd of 223 nM, a koff of 0.0005 s⁻¹ and a kon of 2240 M⁻¹ s⁻¹. Further, in assay [2], the affinity, expressed as Kd, was 108 nM; the koff worked out at 0.00041 s⁻¹; the kon came to 3790 M⁻¹ s⁻¹. In assay [3], this molecule registered a Kd of 192 nM, a koff of 0.00191 s⁻¹ and a kon of 9940 M⁻¹ s⁻¹.

B18: A4-075 (VHH)
VHH: B1 VHH with P13S, T27M, I46L, V50I, S55G, E60D, V99L, T103S
In assay [1], B18 registered a Kd of 9.74 nM, a koff of 0.00099 s⁻¹ and a kon of 102000 M⁻¹ s⁻¹. For the same molecule, in assay [2], binding was put at a Kd of 9.57 nM, the koff turned out to be 0.00067 s⁻¹ and the kon was 70000 M⁻¹ s⁻¹. In assay [3], the Kd was 28.9 nM, the koff was determined as 0.00086 s⁻¹ and the kon is 29800 M⁻¹ s⁻¹.

B19: A4-079 (VHH)
VHH: VQLQESGGGLVQPGGSLRLSCAASGTRFSINTMGWYRQAPGKQRELVANVTPAGSTNYADSVKGRFTISRDNAKNTVYLQMNSLRPEDTAVYYCHVDELRDSSWTTSNLWGQGTQVTVSS
As for B19, in assay [1], binding was characterised by a dissociation constant (Kd) of 382 nM, the koff was determined as 0.00051 s⁻¹ and the kon is 1340 M⁻¹ s⁻¹. Further, in assay [2], the Kd stood at 1620 nM, the koff came out at 0.0019 s⁻¹ and the kon was determined as 1180 M⁻¹ s⁻¹. In assay [3], this molecule showed a Kd of 211 nM, a koff of 0.00083 s⁻¹ and a kon of 3930 M⁻¹ s⁻¹.
